Measurements: patent publication US20260139049A1
Where two headings read alike, the source gives them in different places.

How the values were obtained:
human CLDN9 (human) [1] = target: human CLDN9 (human) (UniProt O95484); experiment: FACS on 293T-CLDN9 cells, 10 µg/mL
human CLDN6 (human) [2] = target: human CLDN6 (human) (UniProt P56747); experiment: FACS on PA-1 tumour cells; target on the cells taken as CLDN6
human CLDN6 (human) [3] = target: human CLDN6 (human) (UniProt P56747); experiment: FACS on HEK293T-CLDN6 cells
mouse CLDN6 (mouse) [4] = target: mouse CLDN6 (mouse) (UniProt Q9Z262); experiment: FACS on CHO-K1-Mouse CLDN6 cells
human CLDN6 (human) [5] = target: human CLDN6 (human) (UniProt P56747); experiment: FACS on HepG2 tumour cells; target on the cells taken as CLDN6
human CLDN6 (human) [6] = target: human CLDN6 (human) (UniProt P56747); experiment: as above; remark: listed apart in the source
human CLDN9 (human) [7] = target: human CLDN9 (human) (UniProt O95484); experiment: FACS on 293T-CLDN9 cells, 10 µg/mL; remark: listed apart in the source
human CLDN6 (human) [8] = target: human CLDN6 (human) (UniProt P56747); experiment: FACS on 293T-CLDN6 cells, 10 µg/mL
human CLDN6 (human) [9] = target: human CLDN6 (human) (UniProt P56747); experiment: FACS on 293T-CLDN6 cells, 10 µg/mL; remark: listed apart in the source
human CLDN6 (human) [10] = target: human CLDN6 (human) (UniProt P56747); experiment: ratio of FACS Geom.Mean on 293T-CLDN6 over 293T-CLDN9, 10 µg/mL
human CLDN9 (human) [11] = target: human CLDN9 (human) (UniProt O95484); experiment: FACS on 293T-CLDN9 cells, 10 µg/mL; remark: listed apart in the source
human CLDN3 (human) = human CLDN3 (human) (UniProt O15551); experiment: FACS on 293T-CLDN3 cells, 10 µg/mL
human CLDN6 (human) [12] = target: human CLDN6 (human) (UniProt P56747); experiment: FACS on 293T-CLDN6 cells, 10 µg/mL; remark: listed apart in the source
human CLDN4 (human) = human CLDN4 (human) (UniProt O14493); experiment: FACS on 293T-CLDN4 cells, 10 µg/mL
human CLDN6 (human) [13] = target: human CLDN6 (human) (UniProt P56747); experiment: FACS on PA-1 tumour cells; target on the cells taken as CLDN6; remark: listed apart in the source
[14] = target: monkey CLDN6 (Cyno CLDN6) (monkey (Cyno)); experiment: FACS on CHO-K1-Cyno CLDN6 cells
human CLDN6 (human) [15] = target: human CLDN6 (human) (UniProt P56747); experiment: FACS on HepG2 tumour cells, 5 µg/mL; target on the cells taken as CLDN6
mouse CLDN6 (mouse) [16] = target: mouse CLDN6 (mouse) (UniProt Q9Z262); experiment: FACS
mouse CLDN6 (mouse) [17] = target: mouse CLDN6 (mouse) (UniProt Q9Z262); experiment: FACS; FIG. 20

Sequence of mouse CLDN6 (mouse) (Q9Z262 whole entry): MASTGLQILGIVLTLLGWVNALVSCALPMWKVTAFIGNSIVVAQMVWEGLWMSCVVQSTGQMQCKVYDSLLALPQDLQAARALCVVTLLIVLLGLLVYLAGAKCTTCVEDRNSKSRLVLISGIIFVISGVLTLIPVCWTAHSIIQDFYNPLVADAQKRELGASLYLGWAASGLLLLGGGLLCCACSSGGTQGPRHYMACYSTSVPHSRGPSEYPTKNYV
Sequence of human CLDN9 (human) (O95484 whole entry): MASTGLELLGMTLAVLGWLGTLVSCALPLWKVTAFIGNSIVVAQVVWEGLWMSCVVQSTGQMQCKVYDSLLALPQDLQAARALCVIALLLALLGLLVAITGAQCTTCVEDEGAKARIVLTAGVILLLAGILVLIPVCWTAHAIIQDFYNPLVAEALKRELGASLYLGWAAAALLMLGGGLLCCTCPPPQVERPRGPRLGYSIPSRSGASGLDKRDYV
Sequence of human CLDN6 (human) (P56747 whole entry): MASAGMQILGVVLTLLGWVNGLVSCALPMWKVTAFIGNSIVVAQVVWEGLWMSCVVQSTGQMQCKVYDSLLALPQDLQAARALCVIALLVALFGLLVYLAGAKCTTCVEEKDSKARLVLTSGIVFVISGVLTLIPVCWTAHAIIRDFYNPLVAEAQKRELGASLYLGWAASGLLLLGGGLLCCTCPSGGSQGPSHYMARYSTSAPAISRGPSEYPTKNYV
Sequence of human CLDN4 (human) (O14493 whole entry): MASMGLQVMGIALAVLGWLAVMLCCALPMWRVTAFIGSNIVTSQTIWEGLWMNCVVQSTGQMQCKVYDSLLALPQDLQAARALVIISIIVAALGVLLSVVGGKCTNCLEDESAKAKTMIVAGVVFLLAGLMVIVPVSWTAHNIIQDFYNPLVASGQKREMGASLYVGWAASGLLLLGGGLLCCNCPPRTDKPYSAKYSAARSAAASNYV
Sequence of human CLDN3 (human) (O15551 whole entry): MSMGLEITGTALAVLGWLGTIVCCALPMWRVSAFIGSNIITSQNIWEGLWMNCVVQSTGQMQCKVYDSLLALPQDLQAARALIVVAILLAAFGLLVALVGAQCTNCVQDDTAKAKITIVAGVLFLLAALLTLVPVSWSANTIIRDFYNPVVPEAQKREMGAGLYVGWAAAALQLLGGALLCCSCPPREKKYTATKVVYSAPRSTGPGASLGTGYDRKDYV

## Human IgG (antibody)
Human CLDN9 (human) [1]
  Geom.Mean: 79.4
Human CLDN6 (human) [2]
  EC50: 194 µg/mL
Human CLDN6 (human) [3]
  EC50: 323 µg/mL
  FACS signal: 136
Mouse CLDN6 (mouse) [4]
  EC50: 78.8 µg/mL
Human CLDN6 (human) [5]
  EC50: 63700 µg/mL
Human CLDN6 (human) [6]
  EC50: 77.5 µg/mL
Human CLDN9 (human) [7]
  Geom.Mean: 119
Human CLDN6 (human) [8]
  Geom.Mean: 196
Human CLDN6 (human) [9]
  Geom.Mean: 222
Human CLDN6 (human) [10]
  CLDN6/CLDN9 ratio: 1.6
Human CLDN9 (human) [11]
  Geom.Mean: 295
Human CLDN3 (human)
  Geom.Mean: 168
Human CLDN6 (human) [12]
  Geom.Mean: 163
Human CLDN4 (human)
  Geom.Mean: 158
Human CLDN6 (human) [13]
  EC50: 138000 µg/mL
[14]
  EC50: 132 µg/mL
Human CLDN6 (human) [15]
  Geom.Mean: 57.6

## IMAB027
Mouse CLDN6 (mouse) [16]
  EC50: 0.332 µg/mL
Mouse CLDN6 (mouse) [17]
  EC50: 0.332 µg/mL
